Values belong to the binder of their own block, whether it stands above or below them.
Key:
human LILRB1 on cells = molecular target: T1, human LILRB1 on cells (human, UniProt Q8NHL6 24-650); experiment: flow cytometry, AF647-labelled antibody at 10 µg/mL on human PBMC, gate: CD56dim CD16+ NK cells (LILRB1-expressing subset per paragraph 345)
T1 construct: whole, on cells; also called hLILRB1; LILRB1-expressing 721.221 cells
Protocol: To further characterize the binding of LILRB2/1 antibodies to LILRB1 expressing immune cell subsets (namely, B, T, and NK cells), binding assays were performed with primary human PBMCs. Single cell suspensions of peripheral blood mononuclear cells (PBMCs) from healthy donors were seeded at 0.5 million per well in 96-well plates (Thermo Fisher, No. 249946). PBMCs were blocked with 0.5 mg/mL of human IgG1 myeloma plasma (Athens Research, No. 16-16-090707-1M) in FACS Buffer (PBS containing 2% FBS, 2 mM EDTA and 0.05% NaN₃) for 45 min to 1 h at 4° C. The immune cell phenotyping antibodies and indicated AlexaFluor647-labeled test antibodies were then added to the cells and incubated for 45 min to 1 h at 4° C.
Cells were washed 1× with PBS and stained with the Zombie Violet™ fixable viability dye for 15 min at RT for live cell discrimination. Cells were washed 1× with FACS Buffer, fixed, and acquired on a FACS Symphony cytometer (BD Biosciences). Data analysis was performed using the FlowJo software (v10.8.1). […]

human LILRB2 on cells = molecular target: T2, human LILRB2 on cells (human, UniProt Q8N423 22-597); experiment: flow cytometry, AF647-labelled antibody on HEK293T cells stably expressing human LILRB2
T2 construct: whole, on cells; also called hLILRB2; LILRB2-HEK293T
Protocol: While LILRB2 expression is mostly restricted to myeloid cells, LILRB1 has a broader expression on immune cell subsets, including B cells, T cells and NK cells.
Frozen cells were removed from storage in vapor phase liquid nitrogen and thawed by gentle swirling in a water bath at 37° C., then resuspended in DMEM media with 10% FBS. Cells were placed in a 15 mL conical tube and centrifuged at 300×g for 5 min, then supernatant was removed. Cells were resuspended in DMEM+10% FBS at a cell density of 2×10⁵ cells/mL in a T75 flask for culturing, and incubated at 37° C., 5% CO₂ for 3 days before passaging. Cells were passaged when the cell density reached 1×10⁶ cell/mL. On the day of the assay, cells were centrifuged, then supernatant was removed. Cells were resuspended in Blocking Buffer B (FACS Buffer containing 10% FBS and 0.5 mg/mL human IgG1 (Athens Research, No. 16-16-090707-1M)+0.05% NaN₃, 5% (w/v)) in a 15 mL conical tube, then incubated at 4° C. for 30 min. […] Cells were incubated with antibodies at 4° C. for 1 h. Cells were washed twice in FACS Buffer (PBS containing 2 mM EDTA+1% FBS+0.05% NaN₃) and then stained with for 10 min with Zombie Violet™ fixable viability dye (BioLegend, No. 423114) at RT, washed with FACS Buffer and resuspend in 75 μL of FACS Buffer for acquisition on a BD FACSymphony™ or BD FACSCanto™ II flow cytometer (BD Biosciences), as described in Example 6.

T1 sequence (Q8NHL6 24-650): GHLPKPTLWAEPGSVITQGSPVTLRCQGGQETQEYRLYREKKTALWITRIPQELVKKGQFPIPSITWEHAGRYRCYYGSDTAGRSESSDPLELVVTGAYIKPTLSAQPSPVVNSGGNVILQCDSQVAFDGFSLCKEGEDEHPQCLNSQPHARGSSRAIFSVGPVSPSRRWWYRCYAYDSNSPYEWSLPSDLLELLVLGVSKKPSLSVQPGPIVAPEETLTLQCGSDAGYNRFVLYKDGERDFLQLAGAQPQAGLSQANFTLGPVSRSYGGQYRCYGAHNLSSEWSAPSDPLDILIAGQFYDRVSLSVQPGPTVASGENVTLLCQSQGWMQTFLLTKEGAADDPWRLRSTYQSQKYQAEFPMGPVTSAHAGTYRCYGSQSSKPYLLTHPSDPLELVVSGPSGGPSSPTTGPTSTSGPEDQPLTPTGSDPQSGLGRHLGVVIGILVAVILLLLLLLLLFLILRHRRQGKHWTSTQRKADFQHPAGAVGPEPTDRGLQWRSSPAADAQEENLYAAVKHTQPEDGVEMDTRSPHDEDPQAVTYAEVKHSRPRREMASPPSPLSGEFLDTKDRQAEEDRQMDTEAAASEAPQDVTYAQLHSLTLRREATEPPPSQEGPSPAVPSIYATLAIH
T2 sequence (Q8N423 22-597): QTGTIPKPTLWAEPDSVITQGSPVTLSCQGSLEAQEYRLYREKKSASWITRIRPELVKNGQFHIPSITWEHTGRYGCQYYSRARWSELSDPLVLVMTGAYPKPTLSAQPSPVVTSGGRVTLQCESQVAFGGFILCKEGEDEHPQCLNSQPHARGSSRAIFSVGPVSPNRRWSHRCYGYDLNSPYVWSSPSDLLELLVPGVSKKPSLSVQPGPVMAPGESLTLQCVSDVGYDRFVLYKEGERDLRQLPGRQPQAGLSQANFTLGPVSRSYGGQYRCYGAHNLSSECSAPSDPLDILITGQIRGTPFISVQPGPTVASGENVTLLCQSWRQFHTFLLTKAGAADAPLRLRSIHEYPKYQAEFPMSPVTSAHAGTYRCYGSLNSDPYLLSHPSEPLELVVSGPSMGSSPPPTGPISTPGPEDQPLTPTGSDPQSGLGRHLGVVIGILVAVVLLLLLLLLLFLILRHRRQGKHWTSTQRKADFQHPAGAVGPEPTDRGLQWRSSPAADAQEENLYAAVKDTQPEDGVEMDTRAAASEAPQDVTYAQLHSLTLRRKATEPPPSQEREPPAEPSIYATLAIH

- binding result (human LILRB1 on cells): binds
B1: Comp 1 (anti-LILRB1 antibody) (antibody, human IgG1, kappa, V domains shown)
VH: QVQLKESGPGLVAPSQSLSITCTVSGFSLTNYGVSWVRQPPGKGLEWLGIIWGDGSTNYHSALISRLSISKDNSKSQVFLKLNSLQADDTATYYCAKPNWDTYAMDFWGQGTSVTVSS
VL: DIQMTQTTSSLSASLGDRVTISCRASQDISNFLNWYQQKPDGTVKLLIYCTSKLHSGVPSRFSGSGSETDYSLTISNLEQEDIATYFCQQGNTLPPTFGGGTKLEIIR

- EC50 (read off the curve) (human LILRB2 on cells): ~600 pM
B2: Comp 2 (anti-LILRB2 antibody) (antibody, human IgG1, kappa, V domains shown)
VH: QIQLVQSGPELKKPGETVKISCKASGYTFTNYGMNWVKQAPGKGLKWMGWINTYIGEPIYADDFKGRFAFSLETSASTAYLQINNLKNEDMATYFCARRSDYDGYAMDYWGQGTSVTVSS
VL: DIVMSQSPSSLAVSVGERVTMSCKSSQSLLYSGNQKNYLAWYQQKPGQSPKLLIYWASTRESGVPDRFTGSGSGTDFTLTISSVKAEDLAVYYCQQHDSYPTFGGGSRLEIKR

- binding result (human LILRB1 on cells): binds
B3: Comp 3 (antibody, human IgG1, kappa, N297G, V domains shown)
VH: QVQLVQSGAEVKKPGASVKVSCKASGYTFTDYYINWVRQAPGQGLEWMGNVNPNDGGTTYNQKFKGRVTMTTDTSTSTAYMELRSLRSDDTAVYYCARREIYFYGTIYYYAMDYWGQGTLVTVSS
VL: DIQLTQSPSFLSASVGDRVTITCRASESVDYYGNSFMYWYQQKPGKAPKLLIYFASNLESGVPSRFSGSGSGTEFTLTISSLQPEDFATYYCQQNNEDPWTFGGGTKVEIKR
notes: The text says 'a LILRB2/1 antibody (Comp 3); also called comparator LILRB2/1 antibody

Source: patent publication US20250002577A1 (ONCORESPONSE, published 2025)
